B1: BBSome complex member BBS4 (Homo sapiens), Q96RK4 (parent)
chain: MAEERVATRTQFPVSTESQKPRQKKAPEFPILEKQNWLIHLHYIRKDYEACKAVIKEQLQETQGLCEYAIYVQALIFRLEGNIQESLELFQTCAVLSPQSADNLKQVARSLFLLGKHKAAIEVYNEAAKLNQKDWEISHNLGVCYIYLKQFNKAQDQLHNALNLNRHDLTYIMLGKIHLLEGDLDKAIEVYKKAVEFSPENTELLTTLGLLYLQLGIYQKAFEHLGNALTYDPTNYKAILAAGSMMQTHGDFDVALTKYRVVACAVPESPPLWNNIGMCFFGKKKYVAAISCLKRANYLAPFDWKILYNLGLVHLTMQQYASAFHFLSAAINFQPKMGELYMLLAVALTNLEDIENAKRAYAEAVHLDKCNPLVNLNYAVLLYNQGEKKNALAQYQEMEKKVSLLKDNSSLEFDSEMVEMAQKLGAALQVGEALVWTKPVKDPKSKHQTTSTSKPASFQQPLGSNQALGQAMSSAAAYRTLPSGAGGTSQFTKPPSLPLEPEPAVESSPTETSEQIREK
partner: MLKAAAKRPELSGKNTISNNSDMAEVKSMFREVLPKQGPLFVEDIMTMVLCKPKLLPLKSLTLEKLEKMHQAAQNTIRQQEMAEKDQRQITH

Variants of: B1
Settings: with bbip1_human BBIP1, A8MTZ0

Variant | effect of a mutation on the interaction
G469E | with no effect
G282K | with no effect
G282A | with no effect
L272A | with no effect
H314P | disrupting interaction strength
A379V | disrupting interaction strength
G311E | with no effect
A360E | with no effect
K401V | disrupting interaction strength
K406A | with no effect
M278E | with no effect
S445A | with no effect
Y395A | with no effect
L348E | with no effect
L348P | disrupting interaction strength
L348A | with no effect
W273K | with no effect
K389A | with no effect
P439K | with no effect
K423A | with no effect
W436K | with no effect
Y361A | with no effect

Variant | effect of a mutation on the interaction
T452E | with no effect
I516E | with no effect
L381E | with no effect
M472K | with no effect
M342E | with no effect
M342T | disrupting interaction strength
Q385E | with no effect
Y478E | with no effect
Y341D | disrupting interaction strength
Y341K | with no effect
S507K | with no effect
L405E | with no effect
N356K | with no effect
D368G | disrupting interaction strength
L299A | with no effect
Q319E | with no effect
S464K | with no effect
F280K | with no effect
L340F | disrupting interaction strength
P335T | disrupting interaction strength
L382E | with no effect
P494K | with no effect

Variant | effect of a mutation on the interaction
K336A | with no effect
L312H | disrupting interaction strength
V402E | with no effect
C370K | with no effect
T449E | with no effect
P498E | with no effect
Q318K | with no effect
S453K | with no effect
P461A | with no effect
Q422E | with no effect
T510E | with no effect
L315S | disrupting interaction strength
A477E | with no effect
A391E | with no effect
A391V | disrupting interaction strength
M337A | with no effect
Y286E | with no effect
W304K | with no effect
N332E | with no effect
N332I | disrupting interaction strength
N332A | with no effect
V430A | with no effect

Variant | effect of a mutation on the interaction
E387K | with no effect
L307E | with no effect
Q394K | with no effect
Q394L | disrupting interaction strength
A345V | disrupting interaction strength
N375A | with no effect
N371E | with no effect
L411K | with no effect
A289V | disrupting interaction strength
G486K | with no effect
K444E | with no effect
E500A | with no effect
S328K | with no effect
L344K | with no effect
P495A | with no effect
V435E | with no effect
L310K | with no effect
Q334K | with no effect
L373E | with no effect
T488K | with no effect
